Publication PMC8510090, “The DNA Recognition Motif of GapR Has an Intrinsic DNA Binding Preference towards AT-rich DNA” (Molecules, 2021)

Tests used:
[1] = target: the molecule itself; assay: crystal structure; hanging drop vapor diffusion at room temperature; protein 10 mg/mL in 50 mM HEPES pH 7.0, 300 mM NaCl; 0.1 M sodium cacodylate pH 6.0, 15% PEG4000; 2.08 angstrom
GapRΔC17 [2] = target: T1, GapRΔC17 (Caulobacter crescentus, UniProt B8H4R9 1-72); assay: MST; MST: 20 mM PBS, 150 mM NaCl, 0.02% n-dodecyl-β-D-maltoside, pH 7, 20 nM labeled dimer (labeling at room temperature); NMR netropsin competition: 50 mM sodium phosphate, 150 mM NaCl, pH 7.0, 90% H2O/5% D2O (so in the source); details: protein: recombinant, tags: C-terminal His6, chain copies: 2
T1 sequence: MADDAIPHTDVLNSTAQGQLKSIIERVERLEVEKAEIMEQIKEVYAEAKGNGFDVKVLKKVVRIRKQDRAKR

GapRΔC17 [3] = target: T1, GapRΔC17; assay: NMR titration (1H-15N HSQC); MST: 20 mM PBS, 150 mM NaCl, 0.02% n-dodecyl-β-D-maltoside, pH 7, 20 nM labeled dimer (labeling at room temperature); NMR netropsin competition: 50 mM sodium phosphate, 150 mM NaCl, pH 7.0, 90% H2O/5% D2O (so in the source); details: protein: recombinant; tags: C-terminal His6; chain copies: 2

B1: GapR^ΔC17 (DNA binding domain of GapR, residues 1–72) (domain or fragment, Caulobacter crescentus, UniProt B8H4R9 1-72, looked up)
chain: T1 sequence
notes: GapR, nucleoid-associated protein of Caulobacter crescentus, gene gapr (CCNA_03428), residues 1-72 (the C-terminal 17 residues, most of helix α3, deleted); 8.2 kDa; Cloned into the NdeI and XhoI sites of pET-21a(+) and followed by a C-terminal His6-tag; A selenomethionyl derivative was used for phasing; also called DNA recognition motif of GapR; dimer unit of GapR; source: E. coli Rosetta (DE3), …
Does B1 bind [1]?
Result: binds

B2: 6A DNA (dsDNA)
DNA 1: CGCAAAAAAGCG
DNA 2: CGCTTTTTTGCG
Which Kd (GapRΔC17 [2]; blunt) does the source give for B2 here?
The Kd was 1.1 ± 0.1 µM.

B3: 6CG DNA (dsDNA)
DNA 1: CGCGCGCGCGCG
DNA 2: CGCGCGCGCGCG
How did the Kd (GapRΔC17 [2]) turn out when B3 was run?
The Kd was 18 ± 2 µM.

B4: 3AT DNA (dsDNA)
DNA 1: CGCATATATGCG
DNA 2: CGCATATATGCG
Does B4 bind (GapRΔC17 [3])?
Result: binds
